The target of assay [1] is T1, human Siglec-10 on the cell surface (human, UniProt Q96LC7 17-697).
T1 sequence (looked up): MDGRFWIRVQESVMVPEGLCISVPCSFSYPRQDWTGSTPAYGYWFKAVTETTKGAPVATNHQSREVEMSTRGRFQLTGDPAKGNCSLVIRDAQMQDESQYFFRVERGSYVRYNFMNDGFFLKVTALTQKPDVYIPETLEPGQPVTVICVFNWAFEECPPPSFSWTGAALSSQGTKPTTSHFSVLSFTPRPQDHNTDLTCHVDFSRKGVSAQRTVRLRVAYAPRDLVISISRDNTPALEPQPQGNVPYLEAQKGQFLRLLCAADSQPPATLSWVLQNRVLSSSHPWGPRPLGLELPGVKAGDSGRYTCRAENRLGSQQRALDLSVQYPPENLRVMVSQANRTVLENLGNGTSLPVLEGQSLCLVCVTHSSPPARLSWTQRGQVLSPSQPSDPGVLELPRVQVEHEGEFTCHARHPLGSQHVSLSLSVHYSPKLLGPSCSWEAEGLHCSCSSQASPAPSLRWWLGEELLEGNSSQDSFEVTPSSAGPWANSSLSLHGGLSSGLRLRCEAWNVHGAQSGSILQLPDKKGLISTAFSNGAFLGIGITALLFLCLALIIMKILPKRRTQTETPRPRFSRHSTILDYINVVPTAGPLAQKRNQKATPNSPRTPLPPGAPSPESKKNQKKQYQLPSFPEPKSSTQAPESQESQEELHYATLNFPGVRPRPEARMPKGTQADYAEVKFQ
The assay is described as follows: cell-based or functional assay.

Assay [2] has as its target rhesus Siglec-10 on expi293 cells (rhesus) (UniProt F7GW74). The assay is described as follows: flow cytometry on live expi293 cells transfected with rhesus Siglec-10; FMO median 13039.
In assay [3] the target is recombinant His-tagged human Siglec-10 (ACROBiosystems) (human) (UniProt Q96LC7). Briefly: ELISA: His-tagged human Siglec-10 coated, ONC-841 detected with goat anti-human antibody. On the technique in general: In an ELISA, binding on a coated surface is turned into a signal by an enzyme label.
Assay [4] deals with T1, human Siglec-10 on the cell surface. Briefly: flow cytometry, human PBMC, CD14hi monocytes, without excess hIgG; FMO median 1244. (Flow cytometry measures light scatter and fluorescence of single cells or particles in a stream.)
For assay [5], the target named is human Siglec-10 extracellular domain recombinant protein (His or Fc tag) (human) (UniProt Q96LC7). The assay is described as follows: ELISA: Siglec-10 His coated, biotinylated ONC-841, avidin-HRP.
The target in assay [6] is T1, human Siglec-10 on the cell surface. The assay is described as follows: flow cytometry, human PBMC, B cells, fluorescently labeled ONC-841 (upper left quadrant).
Assay [7] shares this target. Briefly: flow cytometry on live expi293 cells transfected with human Siglec-10; FMO median 14075.
Assay [8] deals with cynomolgus Siglec-10 on the cell surface (cynomolgus). The assay is described as follows: flow cytometry on live expi293 cells transfected with cynomolgus Siglec-10; FMO median 13824.
Chain of cynomolgus Siglec-10 on the cell surface (cynomolgus) (chain, as listed by the source): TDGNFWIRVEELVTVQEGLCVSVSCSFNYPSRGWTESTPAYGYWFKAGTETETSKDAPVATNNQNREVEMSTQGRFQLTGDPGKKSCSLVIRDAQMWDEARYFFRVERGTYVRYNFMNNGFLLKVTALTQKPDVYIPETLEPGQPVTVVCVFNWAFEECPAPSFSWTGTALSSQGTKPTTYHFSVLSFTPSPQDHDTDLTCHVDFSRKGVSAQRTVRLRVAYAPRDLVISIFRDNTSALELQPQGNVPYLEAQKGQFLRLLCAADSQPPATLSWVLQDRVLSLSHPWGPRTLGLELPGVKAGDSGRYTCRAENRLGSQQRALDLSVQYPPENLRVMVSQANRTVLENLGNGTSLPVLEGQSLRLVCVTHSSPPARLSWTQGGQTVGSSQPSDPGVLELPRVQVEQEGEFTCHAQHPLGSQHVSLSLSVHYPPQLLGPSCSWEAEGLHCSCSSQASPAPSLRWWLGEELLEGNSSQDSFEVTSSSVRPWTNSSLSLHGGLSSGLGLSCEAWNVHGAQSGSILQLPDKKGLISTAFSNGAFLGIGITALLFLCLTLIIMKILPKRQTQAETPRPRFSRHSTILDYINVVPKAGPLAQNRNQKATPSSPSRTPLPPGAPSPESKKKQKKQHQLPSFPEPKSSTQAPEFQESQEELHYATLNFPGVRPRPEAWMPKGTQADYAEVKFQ
The target in assay [9] is human Siglec-10 extracellular domain recombinant protein (His or Fc tag) (human) (UniProt Q96LC7). Briefly: ELISA, Siglec protein coated, biotinylated ONC-841, avidin-HRP.
Assay [10] has as its target T1, human Siglec-10 on the cell surface. Briefly: flow cytometry, human PBMC, monocytes, fluorescently labeled ONC-841 (upper left quadrant).
Assay [11] deals with cynomolgus Siglec-10 on the cell surface (cynomolgus). Briefly: flow cytometry, cynomolgus PBMC, CD14hi monocytes, without excess hIgG.
In assay [12] the target is marmoset Siglec-10 on expi293 cells (marmoset) (UniProt F6WZ94). The assay is described as follows: flow cytometry on live expi293 cells transfected with marmoset Siglec-10; FMO median 13762.
Chain of marmoset Siglec-10 on expi293 cells (marmoset) (F6WZ94 entry or part of it): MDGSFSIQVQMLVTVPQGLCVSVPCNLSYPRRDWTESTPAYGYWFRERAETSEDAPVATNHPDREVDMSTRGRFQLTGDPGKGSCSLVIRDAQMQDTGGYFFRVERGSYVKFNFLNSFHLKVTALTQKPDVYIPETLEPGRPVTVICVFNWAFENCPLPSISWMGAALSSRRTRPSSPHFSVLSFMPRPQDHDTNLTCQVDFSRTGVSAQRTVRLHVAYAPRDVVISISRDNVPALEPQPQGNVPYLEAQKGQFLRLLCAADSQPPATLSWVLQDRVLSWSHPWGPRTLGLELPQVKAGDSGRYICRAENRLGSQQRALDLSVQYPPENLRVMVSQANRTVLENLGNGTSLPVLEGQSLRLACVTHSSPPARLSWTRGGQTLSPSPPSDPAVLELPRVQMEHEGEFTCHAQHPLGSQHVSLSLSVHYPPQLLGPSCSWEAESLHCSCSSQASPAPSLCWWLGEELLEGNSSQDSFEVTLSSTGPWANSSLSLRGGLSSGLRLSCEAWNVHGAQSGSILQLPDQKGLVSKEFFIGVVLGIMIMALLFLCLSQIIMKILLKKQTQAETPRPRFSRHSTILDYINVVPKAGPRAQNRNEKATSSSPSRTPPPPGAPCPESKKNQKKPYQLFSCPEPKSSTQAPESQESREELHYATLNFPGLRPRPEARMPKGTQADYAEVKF
Assay [13] deals with T2, Siglec-10 (Biacore analysis) (UniProt Q96LC7 17-546, limits assumed).
T2 sequence (looked up): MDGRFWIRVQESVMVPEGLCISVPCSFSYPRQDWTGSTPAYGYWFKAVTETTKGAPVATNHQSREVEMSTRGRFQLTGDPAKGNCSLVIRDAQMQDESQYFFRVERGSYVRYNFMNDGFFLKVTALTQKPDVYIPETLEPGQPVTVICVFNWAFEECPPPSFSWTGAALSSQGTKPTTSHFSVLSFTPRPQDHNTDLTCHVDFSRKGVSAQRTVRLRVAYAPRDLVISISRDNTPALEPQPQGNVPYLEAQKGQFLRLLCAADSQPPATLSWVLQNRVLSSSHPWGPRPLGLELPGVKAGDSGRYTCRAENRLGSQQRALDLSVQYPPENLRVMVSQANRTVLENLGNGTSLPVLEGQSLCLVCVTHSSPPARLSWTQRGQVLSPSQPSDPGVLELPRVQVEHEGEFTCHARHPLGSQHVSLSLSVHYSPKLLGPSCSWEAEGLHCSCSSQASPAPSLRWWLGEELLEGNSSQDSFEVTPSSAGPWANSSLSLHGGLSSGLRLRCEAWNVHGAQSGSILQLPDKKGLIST
The assay is described as follows: Biacore.

Assay [14] addresses T1, human Siglec-10 on the cell surface. The assay is described as follows: flow cytometry, Jurkat cells expressing human Siglec-10.
In assay [15] the target is T2, Siglec-10 (Biacore analysis). Briefly: Biacore (data from a separate experiment); data from a separate experiment. (In general: SPR reads the build-up and loss of mass on a sensor chip optically.)

Chain of rhesus Siglec-10 on expi293 cells (rhesus) (F7GW74 entry or part of it): as the sequence (chain, as listed by the source) above, with N4S, E11K, T14M, R306H, R486G, E568D, F645S counted along it

In general, EC50 (read off the curve) refers to the concentration giving half of the maximal effect. A word on the Kd: it is a measure of binding affinity in units of concentration. With ONC-841 (antibody), the EC50, ADCC reporter activity of anti-CD20 against Raji cells in [1] was 0.5 µg/mL. The EC50, ADCC reporter activity of cetuximab against B16 cells expressing human EGFR in assay [1] is 0.3 µg/mL. Moreover, the IC50 (so in the source), ADCC reporter activity of ONC-392 against CTLA-4 expressing CHO cells in [1] amounted to 0.08 µg/mL. The Median : Comp-APC-A in assay [2] worked out at 13100; in assay [7], 64200; in assay [8], 14500; in assay [12] it was 14200. Besides, the EC50 (read off the curve) in assay [3] is 0.009 µg/mL; in assay [5], 0.02 µg/mL. In addition, the Median : Comp-Alexa Fluor 488-A in assay [4] was 7250; in assay [11], 1770. The results for the % positive cells in assay [6] and in assay [10] were 51% and 79%, respectively. Also, the Kd in assay [9] was found to be 0.0225 µg/mL.

B1: humanized 31F11 clone #21 (antibody, V domains shown)
VH: QVTLKESGPALVKPTQTLTLTCTFSGFSLSTSGMGLSWIRQPPGKALEWLAHIYWDDDKRYNPSLKSRLTISKDTSKNQVVLTMTNMDPVDTATYYCVRGLYGNWFFDVWGQGTTVTVSS
VL: DIVMTQSPATLSVSPGERATLSCKASQNVGTAVAWYQQKPGQAPRLLIYSASNRYTGVPARFSGSGSGTEFTLTISSLQSEDFAVYFCQQYSSYPLTFGGGTKVEIK
notes: also called hu-VHv1VLv2
As usually defined, the koff is a measure of how fast the partners let go of each other. Read a low koff as slow dissociation. In general, kon refers to a measure of how fast the partners come together. One may read the EC50 as the concentration that produces a half-maximal response. In [13], B1 yielded a koff of 0.000589 s⁻¹ and a kon of 272000 M⁻¹ s⁻¹. In assay [1], the “ADCC EC50” value stood at 0.153 µg/mL. Further, in assay [14], the response was half-maximal at 0.242 µg/mL (EC50). Binding in assay [15] was characterised by a dissociation constant (Kd) of 2.17 nM.

B2: humanized 31F11 clone #22 (antibody, V domains shown)
VH: QVTLKESGPALVKPTQTLTLTCTFSGFSLSTSGMGLSWIRQPPGKALEWLAHIYWDDDKRYNPSLKSRLTISKDTSKNQVVLTMTNMDPVDTATYYCVRGLYGNWFFDVWGAGTTVTVSS
VL: DIVMTQSPATLSVSPGERATLSCKASQNVGTAVAWYQQKPGQAPRLLIYSASNRYTGVPARFSGSGSGTEFTLTISSLQSEDFAVYFCQQYSSYPLTFGGGTKVEIK
notes: also called hu-VHv2VLv2
In assay [13], B2 displayed a Kd of 1.23 nM, a koff of 0.000202 s⁻¹ and a kon of 164000 M⁻¹ s⁻¹. The “ADCC EC50” value in assay [1] was determined as 0.266 µg/mL. The molecule also displayed an EC50 in assay [14] of 0.237 µg/mL.

B3: humanized 31F11 clone #23 (antibody, V domains shown)
VH: QVTLKESGPALVKPTQTLTLTCTFSGFSLSTSGMGLSWIRQPPGKALEWLAHIYWDDDKRYNPSLKSRLTISKDTSKNQVVLTMTNMDPVDTATYYCARGLYGNWFFDVWGQGTTVTVSS
VL: DIVMTQSPATLSVSPGERATLSCKASQNVGTAVAWYQQKPGQAPRLLIYSASNRYTGVPARFSGSGSGTEFTLTISSLQSEDFAVYFCQQYSSYPLTFGGGTKVEIK
In assay [13], B3 displayed a Kd of 1.5 nM, a koff of 0.000197 s⁻¹ and a kon of 131000 M⁻¹ s⁻¹. Further, the “ADCC EC50” value in assay [1] was found to be 0.342 µg/mL. The molecule also showed an EC50 in [14] of 0.237 µg/mL.

These data come from patent US20240218067A1 (ONCOC4, published 2024).
